B1: BsAb-1 (bispecific antibody, human IgG1, lambda)
chain: EVQLVESGGGLVQPGGSLRLSCAASGFISRFYAMGWYRQAPGKQRELVARISSMGWTYYADSVKGRFTISIDNSKNTLYLQMNSLRAEDTAVYYCNARNLWGQGTLVTVSSDKTHTCPPCPAPESTRGPSVFLFPPKPKDTLMISRTPEVTCVVVDVSHEDPEVKFNWYVDGVEVHNAKTKPREEQYNSTYRVVSVLTVLHQDWLNGKEYKCKVSNKALPAPIEKTISKAKGQPREPQVCTLPPSRDELTKNQVSLSCAVKGFYPSDIAVEWESNGQPENNYKTTPPVLDSDGSFFLVSKLTVDKSRWQQGNVFSCSVMHEALHNHYTQKSLSLSPGK
heavy: EVQLVESGGGLVQPGRSLRLSCAASGFTFNTYAMNWVRQAPGKGLEWVARIRSKYNNYATYYADSVKDRFTISRDDSKSIAYLQMNSLKTEDTAVYYCVRHGNFGNSYVSWFAYWGQGTLVTVSSASTKGPSVFPLAPSSKSTSGGTAALGCLVKDYFPEPVTVSWNSGALTSGVHTFPAVLQSSGLYSLSSVVTVPSSSLGTQTYICNVNHKPSNTKVDKKVEPKSCDKTHTCPPCPAPESTRGPSVFLFPPKPKDTLMISRTPEVTCVVVDVSHEDPEVKFNWYVDGVEVHNAKTKPREEQYNSTYRVVSVLTVLHQDWLNGKEYKCKVSNKALPAPIEKTISKAKGQPREPQVYTLPPCRDELTKNQVSLWCLVKGFYPSDIAVEWESNGQPENNYKTTPPVLDSDGSFFLYSKLTVDKSRWQQGNVFSCSVMHEALHNHYTQKSLSLSPGK
light: QTVVTQEPSLTVSPGGTVTLTCRSSTGAVTTSNYANWVQQKPGQAPRGLIGGTNKRAPGVPARFSGSLLGGKAALTLSGVQPEDEAEYFCALWYSNLWVFGGGTKLTVLGQPKAAPSVTLFPPSSEELQANKATLVCLISDFYPGAVTVAWKADSSPVKAGVETTTPSKQSNNKYAASSYLSLTPEQWKSHRSYSCQVTHEGSTVEKTVAPTECS
notes: human IgG1 Fc with L234S/L235T/G236R; also called BsAb-01
B2: BsAb-5 (bispecific antibody, human IgG1, lambda)
chain: EVQLVESGGGLVQPGGSLRLSCAASGFISRFYAMGWYRQAPGKQRELVARISSMGWTYYADSVKGRFTISIDNSKNTLYLQMNSLRAEDTAVYYCNARNLWGQGTLVTVSSGGGGSGGGGSGGGGSEVQLVESGGGLVQPGGSLRLSCAASGFISRFYAMGWYRQAPGKQRELVARISSMGWTYYADSVKGRFTISIDNSKNTLYLQMNSLRAEDTAVYYCNARNLWGQGTLVTVSSDKTHTCPPCPAPESTRGPSVFLFPPKPKDTLMISRTPEVTCVVVDVSHEDPEVKFNWYVDGVEVHNAKTKPREEQYNSTYRVVSVLTVLHQDWLNGKEYKCKVSNKALPAPIEKTISKAKGQPREPQVCTLPPSRDELTKNQVSLSCAVKGFYPSDIAVEWESNGQPENNYKTTPPVLDSDGSFFLVSKLTVDKSRWQQGNVFSCSVMHEALHNHYTQKSLSLSPGK
heavy: B1 heavy
light: B1 light
notes: also called BsAb-05
B3: BsAb-8 (bispecific antibody, human IgG1, lambda)
chain: EVQLVESGGGLVQPGGSLRLSCAASGRSFSSFQMGWFRQAPGKEREFVAASGWSGGPTYYWDSVIGRFTISTDNSKNTLYLQMNSLRAEDTAVYYCYEDRVLSGRPVRYWGQGTLVTVSSGGGGSGGGGSGGGGSEVQLVESGGGLVQPGGSLRLSCAASGRSFSSFQMGWFRQAPGKEREFVAASGWSGGPTYYWDSVIGRFTISTDNSKNTLYLQMNSLRAEDTAVYYCYEDRVLSGRPVRYWGQGTLVTVSSDKTHTCPPCPAPESTRGPSVFLFPPKPKDTLMISRTPEVTCVVVDVSHEDPEVKFNWYVDGVEVHNAKTKPREEQYNSTYRVVSVLTVLHQDWLNGKEYKCKVSNKALPAPIEKTISKAKGQPREPQVCTLPPSRDELTKNQVSLSCAVKGFYPSDIAVEWESNGQPENNYKTTPPVLDSDGSFFLVSKLTVDKSRWQQGNVFSCSVMHEALHNHYTQKSLSLSPGK
heavy: B1 heavy
light: B1 light
notes: also called BsAb-08

T2 sequence (P07766 23-207, chain 1 of 3): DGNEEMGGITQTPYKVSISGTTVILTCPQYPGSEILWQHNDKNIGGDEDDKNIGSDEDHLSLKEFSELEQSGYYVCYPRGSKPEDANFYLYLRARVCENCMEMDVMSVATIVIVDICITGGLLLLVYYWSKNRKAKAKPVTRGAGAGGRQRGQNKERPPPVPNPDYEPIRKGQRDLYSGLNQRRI
T2 sequence (P09693 23-182, chain 2 of 3): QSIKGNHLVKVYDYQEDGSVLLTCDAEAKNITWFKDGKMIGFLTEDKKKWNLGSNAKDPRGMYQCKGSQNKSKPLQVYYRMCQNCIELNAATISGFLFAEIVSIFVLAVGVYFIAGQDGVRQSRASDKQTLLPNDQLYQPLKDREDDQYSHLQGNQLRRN
T2 sequence (P04234 22-171, chain 3 of 3): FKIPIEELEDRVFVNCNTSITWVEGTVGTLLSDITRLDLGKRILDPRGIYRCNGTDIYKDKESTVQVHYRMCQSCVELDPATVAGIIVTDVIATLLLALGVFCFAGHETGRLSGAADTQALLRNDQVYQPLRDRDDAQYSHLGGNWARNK

The target in the first test is T1, human ROR1 (on CHO-K1/ROR1 cells and ROR1 tumour cell lines) (human, UniProt Q01973 30-937).
T1 construct: whole, on cells; also called receptor tyrosine kinase-like orphan receptor 1
T1 sequence (Q01973 30-937): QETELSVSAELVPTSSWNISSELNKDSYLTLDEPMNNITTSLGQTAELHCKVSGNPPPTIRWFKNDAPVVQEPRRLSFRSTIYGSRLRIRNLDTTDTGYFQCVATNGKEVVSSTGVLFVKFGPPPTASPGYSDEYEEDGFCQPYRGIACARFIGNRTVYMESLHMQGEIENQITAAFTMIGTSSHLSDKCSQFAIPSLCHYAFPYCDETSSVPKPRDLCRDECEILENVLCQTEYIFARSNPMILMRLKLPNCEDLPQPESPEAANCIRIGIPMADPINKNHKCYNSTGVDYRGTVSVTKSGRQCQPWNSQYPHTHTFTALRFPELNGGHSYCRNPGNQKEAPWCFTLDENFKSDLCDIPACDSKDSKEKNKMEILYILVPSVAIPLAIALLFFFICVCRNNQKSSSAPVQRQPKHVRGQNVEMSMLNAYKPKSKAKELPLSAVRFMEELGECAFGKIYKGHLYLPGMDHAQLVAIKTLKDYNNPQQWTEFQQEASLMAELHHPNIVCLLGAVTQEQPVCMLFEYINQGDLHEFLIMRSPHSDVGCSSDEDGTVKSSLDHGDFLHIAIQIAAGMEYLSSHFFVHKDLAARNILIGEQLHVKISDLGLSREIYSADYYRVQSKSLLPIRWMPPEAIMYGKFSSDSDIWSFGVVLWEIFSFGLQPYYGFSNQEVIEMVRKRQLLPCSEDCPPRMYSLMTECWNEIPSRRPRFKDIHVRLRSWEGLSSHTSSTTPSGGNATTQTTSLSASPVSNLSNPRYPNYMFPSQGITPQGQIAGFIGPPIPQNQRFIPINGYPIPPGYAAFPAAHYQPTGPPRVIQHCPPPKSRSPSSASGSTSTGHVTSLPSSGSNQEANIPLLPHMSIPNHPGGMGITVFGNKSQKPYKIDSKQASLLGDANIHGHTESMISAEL
Put plainly: flow cytometry on CHO-K1/ROR1 cells overexpressing human ROR1. In general terms: Flow cytometry measures light scatter and fluorescence of single cells or particles in a stream.
Molecule B1 came in with an EC50 of 0.287 nM.
The same measure, in the same setting: under B2 stands 0.109 nM; under B3, 0.28 nM.

Another test concerns the target T2, human CD3 (on Jurkat cells) (human, UniProt P07766 23-207; P09693 23-182; P04234 22-171).
T2 construct: whole, on cells
Put plainly: flow cytometry on Jurkat cells expressing human CD3.
B1 showed an EC50 of 0.384 nM.
On the same count and under the same terms, under B2 stands 0.913 nM.
Still for that read-out and setting: under B3 stands 0.838 nM.

One may read the EC50 as the concentration giving half of the maximal effect. Read a high EC50 as lower potency in that assay.

The values above are taken from patent EP4782541A1 (Nanjing Probio Biotech Co., Ltd., dated 2026).
